Measured values as given in patent publication US20160289298A1 (ACCELERON PHARMA, published 2016).
Changes are numbered by the printed parent chain.

T1: BMP7 (UniProt P18075 293-431)
T1 construct: also called OP-1
T1 sequence (looked up): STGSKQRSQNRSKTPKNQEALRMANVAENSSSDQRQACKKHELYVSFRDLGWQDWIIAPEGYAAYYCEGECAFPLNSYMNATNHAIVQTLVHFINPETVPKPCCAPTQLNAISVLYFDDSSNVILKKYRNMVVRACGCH

T2: BMP15 (UniProt O95972 268-392)
T2 construct: also called GDF9b
T2 sequence (looked up): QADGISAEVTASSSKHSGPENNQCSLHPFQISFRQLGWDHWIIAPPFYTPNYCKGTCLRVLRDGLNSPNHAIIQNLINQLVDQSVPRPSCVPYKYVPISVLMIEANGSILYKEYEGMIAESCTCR

T3: BMP6 (UniProt P22004 382-513, limits assumed)
T3 sequence (looked up): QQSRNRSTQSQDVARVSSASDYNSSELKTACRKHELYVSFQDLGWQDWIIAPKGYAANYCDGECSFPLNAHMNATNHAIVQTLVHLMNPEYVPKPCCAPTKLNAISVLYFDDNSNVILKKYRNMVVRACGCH

T4: BMP5 (UniProt P22003 317-454, limits assumed)
T4 sequence (looked up): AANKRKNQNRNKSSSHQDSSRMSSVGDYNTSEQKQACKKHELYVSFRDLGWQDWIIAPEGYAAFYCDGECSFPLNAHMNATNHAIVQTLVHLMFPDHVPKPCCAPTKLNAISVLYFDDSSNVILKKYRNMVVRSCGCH

T5: GDF8 (UniProt O14793 267-375)
T5 construct: also called myostatin
T5 sequence (looked up): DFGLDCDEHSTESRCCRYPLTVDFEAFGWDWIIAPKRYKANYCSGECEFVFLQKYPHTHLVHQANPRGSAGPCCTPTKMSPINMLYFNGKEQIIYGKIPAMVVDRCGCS

T6: activin A (UniProt P08476 311-426)
T6 sequence (looked up): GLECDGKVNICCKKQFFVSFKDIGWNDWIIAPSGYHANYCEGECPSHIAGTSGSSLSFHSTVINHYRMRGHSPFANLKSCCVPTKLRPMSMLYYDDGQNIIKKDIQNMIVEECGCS

T7: BMP4 (UniProt P12644 293-408)
T7 sequence (looked up): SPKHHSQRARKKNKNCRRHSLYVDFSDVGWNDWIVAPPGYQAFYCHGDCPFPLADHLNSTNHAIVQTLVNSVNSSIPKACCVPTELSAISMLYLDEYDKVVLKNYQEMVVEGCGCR

B1: BMPRII-Fc homodimeric complex (Fc fusion, UniProt Q13873 27-150, looked up)
chain: SQNQERLCAFKDPYQQDLGIGESRISHENGTILCSKGSTCYGLWEKSKGDINLVKQGCWSHIGDPQECHYEECVVTTTPPSIQNGTYRFCCCSTDLCNVNFTENFPPPDTTPLSPPHSFNRDET
notes: also called homodimeric BMPRII-Fc; not shown: linker and Fc portion of the homodimer
B2: activin B (ligand, UniProt P09529 293-407, looked up)
chain: GLECDGRTNLCCRQQFFIDFRLIGWNDWIIAPTGYYGNYCEGSCPAYLAGVPGSASSFHTAVVNQYRMRGLNPGTVNSCCIPTKLSTMSMLYFDDEYNIVKRDVPNMIVEECGCA
B3: GDF6 (ligand, UniProt Q6KF10 336-455, looked up)
chain: TAFASRHGKRHGKKSRLRCSKKPLHVNFKELGWDDWIIAPLEYEAYHCEGVCDFPLRSHLEPTNHAIIQTLMNSMDPGSTPPSCCVPTKLTPISILYIDAGNNVVYKQYEDMVVESCGCR
notes: also called BMP13
B4: ALK3-Fc homodimeric complex (Fc fusion, UniProt P36894 24-152, looked up)
chain: QNLDSMLHGTGMKSDSDQKKSENGVTLAPEDTLPFLKCYCSGHCPDDAINNTCITNGHCFAIIEEDDQGETTLASGCMKYEGSDFQCKDSPKAQLRRTIECCRTNLCNQYLQPTLPPVVIGPFFDGSIR
notes: also called homodimeric ALK3-Fc; not shown: linker and Fc portion of the homodimer
B5: single-arm ActRIIB-Fc:Fc heterodimeric protein complex (Fc fusion)
chain 1: GRGEAETRECIYYNANWELERTNQSGLERCEGEQDKRLHCYASWRNSSGTIELVKKGCWLDDFNCYDRQECVATEENPQVYFCCCEGNFCNERFTHLPEAGGPEVTYEPPPTAPTGGGTHTCPPCPAPELLGGPSVFLFPPKPKDTLMISRTPEVTCVVVDVSHEDPEVKFNWYVDGVEVHNAKTKPREEQYNSTYRVVSVLTVLHQDWLNGKEYKCKVSNKALPAPIEKTISKAKGQPREPQVYTLPPSRKEMTKNQVSLTCLVKGFYPSDIAVEWESNGQPENNYKTTPPVLKSDGSFFLYSKLTVDKSRWQQGNVFSCSVMHEALHNHYTQKSLSLSPGK
chain 2: SNTKVDKRVTGGGTHTCPPCPAPELLGGPSVFLFPPKPKDTLMISRTPEVTCVVVDVSHEDPEVKFNWYVDGVEVHNAKTKPREEQYNSTYRVVSVLTVLHQDWLNGKEYKCKVSNKALPAPIEKTISKAKGQPREPQVYTLPPSREEMTKNQVSLTCLVKGFYPSDIAVEWESNGQPENNYDTTPPVLDSDGSFFLYSDLTVDKSRWQQGNVFSCSVMHEALHNHYTQKSLSLSPGK
notes: C-terminal lysine optionally removed; also called single-arm ActRIIB-Fc heterodimeric complex
B6: single-arm ALK3-Fc:Fc heterodimeric protein complex (Fc fusion)
chain 1: GAQNLDSMLHGTGMKSDSDQKKSENGVTLAPEDTLPFLKCYCSGHCPDDAINNTCITNGHCFAIIEEDDQGETTLASGCMKYEGSDFQCKDSPKAQLRRTIECCRTNLCNQYLQPTLPPVVIGPFFDGSIRTGGGTHTCPPCPAPELLGGPSVFLFPPKPKDTLMISRTPEVTCVVVDVSHEDPEVKFNWYVDGVEVHNAKTKPREEQYNSTYRVVSVLTVLHQDWLNGKEYKCKVSNKALPAPIEKTISKAKGQPREPQVYTLPPSREEMTKNQVSLTCLVKGFYPSDIAVEWESNGQPENNYDTTPPVLDSDGSFFLYSDLTVDKSRWQQGNVFSCSVMHEALHNHYTQKSLSLSPG
chain 2: B5 chain 2 with E147K, D183K, D190K, D200K
notes: also called single-arm ALK3-Fc heterodimer
B7: BMP10 (ligand, UniProt O95393 317-424, looked up)
chain: NAKGNYCKRTPLYIDFKEIGWDSWIIAPPGYEAYECRGVCNYPLAEHLTPTKHAIIQALVHLKNSQKASKACCVPTKLEPISILYLDKGVVTYKFKYEGMAVSECGCR
B8: GDF11 (ligand, UniProt O95390 299-407, looked up)
chain: NLGLDCDEHSSESRCCRYPLTVDFEAFGWDWIIAPKRYKANYCSGQCEYMFMQKYPHTHLVQQANPRGSAGPCCTPTKMSPINMLYFNDKQQIIYGKIPGMVVDRCGCS
notes: also called BMP11
B9: BMP2 (ligand, UniProt P12643 283-396, looked up)
chain: QAKHKQRKRLKSSCKRHPLYVDFSDVGWNDWIVAPPGYHAFYCHGECPFPLADHLNSTNHAIVQTLVNSVNSKIPKACCVPTELSAISMLYLDENEKVVLKNYQDMVVEGCGCR
B10: BMP9 (ligand, UniProt Q9UK05 320-429, looked up)
chain: SAGAGSHCQKTSLRVNFEDIGWDSWIIAPKEYEAYECKGGCFFPLADDVTPTKHAIVQTLVHLKFPTKVGKACCVPTKLSPISVLYKDDMGVPTLKYHYEGMSVAECGCR
notes: also called GDF2

Assays:
BMP7 = biological target: T1, BMP7; assay: SPR (Biacore), receptor-Fc captured by anti-Fc antibody, ligand injected
Experimental: (§1) Ligands were injected and allowed to flow over the captured receptor protein.

BMP15 = biological target: T2, BMP15; assay: as above
Experimental: as §1

BMP6 = biological target: T3, BMP6; assay: as above
Experimental: as §1

[1] = biological target: B1; assay: as above
Experimental: as §1

BMP5 = biological target: T4, BMP5; assay: as above
activin B = biological target: B2; assay: SPR (Biacore), legend of FIG. 6
Experimental: as §1

GDF8 = biological target: T5, GDF8; assay: SPR (Biacore), legend of FIG. 6
Experimental: as §1

activin A = biological target: T6, activin A; assay: SPR (Biacore), legend of FIG. 6
Experimental: as §1

GDF11 = biological target: B8; assay: SPR (Biacore), legend of FIG. 6
Experimental: as §1

BMP4 = biological target: T7, BMP4; assay: SPR (Biacore), receptor-Fc captured by anti-Fc antibody, ligand injected
BMP2 = biological target: B9; assay: as above
[2] = biological target: B4; assay: as above
[3] = biological target: T8, ActRIIA-Fc homodimeric complex (UniProt P27037 21-135); assay: as above
T8 construct: also called homodimeric ActRIIA-Fc; not shown: linker and Fc portion of the homodimer
T8 sequence (P27037 21-135, one chain of several): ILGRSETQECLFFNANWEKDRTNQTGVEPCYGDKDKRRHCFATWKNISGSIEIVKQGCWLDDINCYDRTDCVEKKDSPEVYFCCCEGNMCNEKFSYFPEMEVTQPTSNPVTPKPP

Binder: B1
Kd (BMP7): > 38 nM
Kd (BMP15): 0.28 nM
koff (BMP15): 0.0028 s⁻¹
kon (BMP15): 9.9e+06 M⁻¹ s⁻¹
Kd (BMP6): > 8.9 nM

Binder: B2
Kd [1]: 3.8 nM
koff [1]: 0.075 s⁻¹
kon [1]: 2e+07 M⁻¹ s⁻¹

Binder: B3
Kd [1]: > 88 nM

Binder: B4
binding result (BMP5): binds

Binder: B5
binding result (activin B): binds
binding result (GDF8): binds
binding result (activin A): binds
binding result (GDF11): binds

Binder: B6
binding result (BMP4): binds
binding result (BMP2): binds
binding result (BMP5): binds

Binder: B7
Kd [1]: 0.098 nM
koff [1]: 0.0025 s⁻¹
kon [1]: 2.6e+07 M⁻¹ s⁻¹
binding result [2]: no binding
binding result [3]: binds

Binder: B8
binding result [2]: no binding
binding result [3]: binds

Binder: B9
Kd [1]: > 2000 nM

Binder: B10
Kd [1]: 2.1 nM
koff [1]: 0.026 s⁻¹
kon [1]: 1.2e+07 M⁻¹ s⁻¹
